According to patent publication US20180334496A1 (KODIAK SCIENCES, published 2018):
Where a chain is given by its changes, count along the chain named. “And” between values parts separate entries of the source, which are not always exact repeats. Equal values may be shown once. Read-outs that look alike come from different tables or passages of the source. Blank lines part the entries; values can stand above or below the binder they belong to.

Columns and labels:
[1] = molecular target: T1, human complement factor D purified from serum (human, UniProt P00746 26-253); experiment: SPR MX96
T1 construct: serum-purified (CompTech); also called hCFD-Comptech; CFD

[2] = molecular target: T2, recombinant cynomolgus CFD, His-tagged (cynomolgus); experiment: SPR MX96
T2 construct: also called rcyCFD-His; recombinant Cyno-CFD

[3] = molecular target: T3, recombinant human CFD, His-tagged (human, UniProt P00746 26-253); experiment: SPR MX96
T3 construct: also called rhCFD-His

[4] = molecular target: T1, human complement factor D purified from …
[5] = molecular target: T1, human complement factor D purified from …; experiment: cell-based or functional assay
[6] = molecular target: human Complement Factor D (serum purified) (human, UniProt P00746 26-253); experiment: cell-based or functional assay
[7] = molecular target: T4, recombinant human CFD mutant 1 (R157A, R207A), His-tagged (human, UniProt P00746 26-253); experiment: ELISA
T4 construct: positions are linear positions in the mature protein; also called rhCFD-mut1-His; Mut1

[8] = molecular target: T4, recombinant human CFD mutant 1 (R157A, …); experiment: ELISA; remark: listed apart in the source
[9] = molecular target: T4, recombinant human CFD mutant 1 (R157A, …); experiment: SPR MX96
[10] = molecular target: T1, human complement factor D purified from …; remark: listed apart in the source
[11] = molecular target: T1, human complement factor D purified from …; experiment: cell-based or functional assay; remark: listed apart in the source
[12] = molecular target: T5, serum purified human Complement Factor D (human, UniProt P00746 26-253); experiment: SPR Biacore, antibody on protein A chip, single cycle kinetics, 25 C
T5 construct: Serum purified protein flowed over the captured antibodies; also called CFD; human CFD

[13] = molecular target: T5, serum purified human Complement Factor D; experiment: SPR Biacore, antibody on protein A chip, single cycle kinetics, 37 C
[14] = molecular target: T5, serum purified human Complement Factor D; experiment: SPR Biacore, antibody on protein A chip, single cycle kinetics, 25 C; remark: listed apart in the source
[15] = molecular target: T5, serum purified human Complement Factor D; experiment: SPR Biacore, antibody on protein A chip, single cycle kinetics, 37 C; remark: listed apart in the source
[16] = molecular target: T5, serum purified human Complement Factor D; experiment: SPR Biacore, 25 C
[17] = molecular target: T5, serum purified human Complement Factor D; experiment: SPR Biacore, 37 C
For CFD Enzymatic activity (% of Neg Ctrl) in this document: test concentration or dose not given here.

T4 sequence (P00746 26-253 R182A/R232A limits assumed): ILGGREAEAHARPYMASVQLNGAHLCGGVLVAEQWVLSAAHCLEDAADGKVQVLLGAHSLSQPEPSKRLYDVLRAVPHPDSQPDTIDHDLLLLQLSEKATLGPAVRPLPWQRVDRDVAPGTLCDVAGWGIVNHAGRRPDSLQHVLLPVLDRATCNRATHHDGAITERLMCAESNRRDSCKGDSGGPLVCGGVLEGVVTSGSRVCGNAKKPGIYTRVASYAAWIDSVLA
T1 sequence (P00746 26-253): as the sequence (P00746 26-253 R182A/R232A limits assumed) above, with A157R, A207R counted along it
T3 sequence (P00746 26-253 limits assumed): as the sequence (P00746 26-253 R182A/R232A limits assumed) above, with A157R, A207R counted along it
T5 sequence (P00746 26-253): as the sequence (P00746 26-253 R182A/R232A limits assumed) above, with A157R, A207R counted along it
Chain of human Complement Factor D (serum purified) (P00746 26-253): as the sequence (P00746 26-253 R182A/R232A limits assumed) above, with A157R, A207R counted along it

- Kd [1]: 370 pM and 860 pM
- Kd [2]: 700 pM and 1100 pM
- Kd [3]: 280 pM and 560 pM
- Kd [4]: 35.8 pM
- CFD Enzymatic activity (% of Neg Ctrl) [5]: 15.7 % of Neg Ctrl
B1: KCD119 (antibody, V domains shown)
VH: EVQLQQSGPELVKPGASVKISCKASGYTFTDYYTNWMRQRHGESLEWIGDINPNTGDTSYNQKFRVKATLTVDKSSGTAYMGLRSLTSEDSAVYYCTREGPSFAYWGQGTLVTVSA
VL: DVLMTQTPLSLPVSLGDQASISCRSSQTIVHSNGDTYLEWYLQKPGQSPNLLIYKVSNRFSGVPDRFSGSGSGTDFTLKISRVEAEDLGVYYCFQGSHVPPTFGGGTTLEIK
notes: chimeric; also called Mouse KCD119

- % no ab control, CFD enzymatic activity on Z-L-Lys-SBzl [6]: 15.3 % no ab control
- Vmax (OD/sec), CFD enzymatic activity on Z-L-Lys-SBzl [6]: 0.318 OD/sec
B2: Mouse KCD119 (antibody, V domains shown)
VH: B1 VH
VL: B1 VL

- Mut1 Binding (% wt) [8]: 62.5 % wt
- Kd [1]: 2600 pM
- Kd [2]: 6000 pM
- Kd [3]: 1800 pM
- Kd [9]: 960 pM
- Kd [10]: 1020 pM
- CFD Enzymatic activity (% of Neg Ctrl) [11]: 8.8 % of Neg Ctrl
B6: KCD044 (antibody, V domains shown)
VH: EVQLQQSGAELVKPGASVRLSCTASGFNIKHTYMHWVSQRPERGLEWIGKIDPANGNTKYDPKFQGKATITADTSSNTVYLQLSSLTSEDTAVYYCLNAMEYWGQGTSVTVSS
VL: QSVLTQSPAIMSASPGEKVTMTCSANSSVSDMYWYQQRPGSSPRLLIYDTSNLASGVPVRFSGSGSGTSYSLTISRMEAEDAATYYCQQWSTYPWTFGGGTKLEIK
notes: chimeric

- Kd [12]: 6.83 pM
- koff [12]: 5.18e-05 s⁻¹
- kon [12]: 7.59e+06 M⁻¹ s⁻¹
- Kd [13]: 7.74 pM
- koff [13]: 0.000112 s⁻¹
- kon [13]: 1.45e+07 M⁻¹ s⁻¹
- Kd [14]: 6.83 pM
- koff [14]: 5.18e-05 s⁻¹
- kon [14]: 7.59e+06 M⁻¹ s⁻¹
- Kd [15]: 7.74 pM
- koff [15]: 0.000112 s⁻¹
- kon [15]: 1.45e+07 M⁻¹ s⁻¹
B8: 34I54I59D84S / 54G101V (antibody, V domains shown)
VH: EVQLVESGGGLVQPGGSLRLSCAASGYTFTDYYINWVRQAPGKGLEWIGDINPITGDTDYNADFKRRFTFSLDTSKSTAYLQMSSLRAEDTAVYYCTREGPSFAYWGQGTLVTVSS
VL: DIQLTQSPSSLSASVGDRVTITCRSSQTIVHSNGDTYLEWYQQKPGKAPNLLIGKVSNRFSGVPSRFSGSGSGTDFTLTISSLQPEDFATYYCFQGSHVPVTFGQGTKVEIK
notes: also called 34I54I59D845 / 54G101V

- % no ab control, CFD enzymatic activity on Z-L-Lys-SBzl [6]: 23.3 % no ab control
- Vmax (OD/sec), CFD enzymatic activity on Z-L-Lys-SBzl [6]: 0.486 OD/sec
B10: 34I54V59D84S/54R101V (SEQ ID NO: 184) (antibody, V domains shown)
VH: B8 VH with I54V
VL: DIQLTQSPSSLSASVGDRVTITCRSSQTIVHSNGDTYLEWYQQKPGKAPNLLIRKVSNRFSGVPSRFSGSGSGTDFTLTISSLQPEDFATYYCFQGSHVPVTFGQGTKVEIKR

- Kd [16]: 5.62 pM
- koff [16]: 0.000101 s⁻¹
- kon [16]: 1.8e+07 M⁻¹ s⁻¹
- Kd [17]: 8.08 pM
- koff [17]: 0.000264 s⁻¹
- kon [17]: 3.27e+07 M⁻¹ s⁻¹
- Kd [12]: 5.62 pM
- koff [12]: 0.000101 s⁻¹
- kon [12]: 1.8e+07 M⁻¹ s⁻¹
- Kd [13]: 8.08 pM
- koff [13]: 0.000264 s⁻¹
- kon [13]: 3.27e+07 M⁻¹ s⁻¹
B11: 34I54I59D / 54R101V (antibody, V domains shown)
VH: B8 VH with S84N
VL: B10 VL
notes: KCD119 TAF variant

- Kd [16]: 5.96 pM
- koff [16]: 7.84e-05 s⁻¹
- kon [16]: 1.32e+07 M⁻¹ s⁻¹
- Kd [17]: 9.61 pM
- koff [17]: 0.000237 s⁻¹
- kon [17]: 2.46e+07 M⁻¹ s⁻¹
- Kd [12]: 7.6 pM and 5.96 pM
- koff [12]: 0.000106 s⁻¹ and 7.84e-05 s⁻¹
- kon [12]: 1.39e+07 M⁻¹ s⁻¹ and 1.32e+07 M⁻¹ s⁻¹
- Kd [13]: 5.83 pM and 9.61 pM
- koff [13]: 0.000157 s⁻¹ and 0.000237 s⁻¹
- kon [13]: 2.69e+07 M⁻¹ s⁻¹ and 2.46e+07 M⁻¹ s⁻¹
B12: 31S34I54I59D / 54R101V (antibody, V domains shown)
VH: B8 VH with D31S, S84N
VL: B10 VL
notes: KCD119 TAF variant

Continued, binder first:

B3: KCD124 (antibody, V domains shown)
VH: EVQLQQSGPELVKPGASVKISCKASGYTFTDHYMNWVKQSHGKSLEWIGDINPNNGGTSYNQKFKGKATLTVDKSSSTAYMELRSLTSGDSAVYYCTREGASFAFWGQGTLVTVSA
VL: B1 VL with T28S, N50K, P101L, G105A, T108K, I111L
notes: chimeric
- Mut1 Binding (% wt) [7]: -0.643 % wt
- Kd [1]: 4300 pM
- Kd [2]: 5200 pM
- Kd [3]: 3300 pM
- Kd [4]: 780 pM
- CFD Enzymatic activity (% of Neg Ctrl) [5]: 19.7 % of Neg Ctrl

B4: KCD042 (antibody, V domains shown)
VH: B6 VH with M34I, R43Q, V79A, L97V
VL: B6 VL with Y35F
notes: chimeric
- Mut1 Binding (% wt) [8]: 65.6 % wt
- Kd [1]: 1400 pM
- Kd [2]: 3000 pM
- Kd [3]: 1000 pM
- Kd [9]: 420 pM
- Kd [10]: 1090 pM
- CFD Enzymatic activity (% of Neg Ctrl) [11]: 6.8 % of Neg Ctrl

B5: KCD040 (antibody, V domains shown)
VH: EVQLQQSGAELVKPGASVKLSCTASDFNIKDTYMHWVMQRPEQGLEWIGKIDPANGNTEFDPKFQGKATITADTSSNTAYLQLTSLTSEDTAVYYCTRAMDYWGQGTSVTVSS
VL: B6 VL with S2I, N26G, D31Y, R38K, L45V, T92N, W95Y
notes: chimeric
- Mut1 Binding (% wt) [8]: 62.2 % wt
- Kd [1]: 1900 pM
- Kd [2]: 170000 pM
- Kd [3]: 1400 pM
- Kd [9]: 750 pM
- Kd [10]: 79100 pM
- CFD Enzymatic activity (% of Neg Ctrl) [11]: 13.7 % of Neg Ctrl

B7: KCD119 TAF (antibody, V domains shown)
VH: B8 VH with I34M, I54N, D59S, S84N
VL: B8 VL with G54Y, V101P
- % no ab control, CFD enzymatic activity on Z-L-Lys-SBzl [6]: 19.6 % no ab control
- Vmax (OD/sec), CFD enzymatic activity on Z-L-Lys-SBzl [6]: 0.408 OD/sec

B9: 31S34I54V59D84S/54R101V (SEQ ID NO: 184) (antibody, V domains shown)
VH: B8 VH with D31S, I54V
VL: B10 VL
- % no ab control, CFD enzymatic activity on Z-L-Lys-SBzl [6]: 28.6 % no ab control
- Vmax (OD/sec), CFD enzymatic activity on Z-L-Lys-SBzl [6]: 0.596 OD/sec

B13: 54I59D / 54R101V (antibody, V domains shown)
VH: B8 VH with I34M, S84N
VL: B10 VL
notes: KCD119 TAF variant
- Kd [16]: 5.72 pM
- koff [16]: 9.8e-05 s⁻¹
- kon [16]: 1.71e+07 M⁻¹ s⁻¹
- Kd [17]: 6.63 pM
- koff [17]: 0.000205 s⁻¹
- kon [17]: 3.09e+07 M⁻¹ s⁻¹
- Kd [12]: 6.42 pM and 2.94 pM and 5.72 pM and 5.23 pM
- koff [12]: 7.04e-05 s⁻¹ and 5.95e-05 s⁻¹ and 9.8e-05 s⁻¹ and 9.5e-05 s⁻¹
- kon [12]: 1.1e+07 M⁻¹ s⁻¹ and 2.02e+07 M⁻¹ s⁻¹ and 1.71e+07 M⁻¹ s⁻¹ and 1.82e+07 M⁻¹ s⁻¹
- Kd [13]: 7.1 pM and 5.43 pM and 6.63 pM and 7.92 pM
- koff [13]: 0.000187 s⁻¹ and 0.000257 s⁻¹ and 0.000205 s⁻¹ and 0.0003 s⁻¹
- kon [13]: 2.64e+07 M⁻¹ s⁻¹ and 4.74e+07 M⁻¹ s⁻¹ and 3.09e+07 M⁻¹ s⁻¹ and 3.78e+07 M⁻¹ s⁻¹

B14: 31S34I54I59D84S / 54R101V (antibody, V domains shown)
VH: B8 VH with D31S
VL: B10 VL
notes: KCD119 TAF variant; also called 3I534I54I59D84S / 54R101V
- Kd [12]: < 0.602 pM
- koff [12]: < 1e-05 s⁻¹
- kon [12]: 1.66e+07 M⁻¹ s⁻¹
- Kd [13]: 3.92 pM
- koff [13]: 0.000137 s⁻¹
- kon [13]: 3.5e+07 M⁻¹ s⁻¹
- Kd [14]: < 0.602 pM
- koff [14]: < 1e-05 s⁻¹
- kon [14]: 1.66e+07 M⁻¹ s⁻¹
- Kd [15]: 3.92 pM
- koff [15]: 0.000137 s⁻¹
- kon [15]: 3.5e+07 M⁻¹ s⁻¹
